In assay [1] the target is G-Ara h 2/6 (native Ara h 2/6 heated for 15 min to 110°C in the presence of 100 mM glucose). Briefly: SEC; Superdex-75 column on an Äkta Basic FPLC, calibrated with gel filtration molecular weight standards; Ara h 2/6 before and after heating for 15 min at 110°C in the presence or absence of glucose. (In gel filtration, larger molecules generally elute earlier.)
Assay [2] concerns the target H-Ara h 2/6 (native Ara h 2/6 heated for 15 min to 110°C alone). Described as above.

As to “G-Ara h 2/6 (native Ara h 2/6 heated for 15 min to 110°C in the presence of 100 mM glucose)”, the percent of the protein remaining monomeric in assay [1] worked out at 20%. In turn, “H-Ara h 2/6 (native Ara h 2/6 heated for 15 min to 110°C alone)” had a percent of the protein remaining monomeric in assay [2] of 20%.

Source of the values: paper PMC3162016.
